In article PMC4433226:

How the values were obtained:
[1] = target: T1, Ku70/Ku80 wild type;DNA-PKcs (human?;human (HeLa cells), UniProt P12956;P13010;P78527 1-609;1-732;1-4128, |); assay: ELISA; ELISA: 20 mM HEPES pH 7.5, 75 mM KCl, 10% glycerol, 0.005% Triton X-100, 2 mM DTT, room temperature, 1 h, 2 pmol DNA, 424 ng DNA-PKcs; EMSA: 20 ul, 500 fmol DNA, buffer as in earlier papers; conditions: protein: recombinant;native; tags: His (Ku70);; copies: 1;1;1; label: 5' biotin on one end; blunt
Ku70/Ku80 wild type [2] = target: T2, Ku70/Ku80 wild type (UniProt P12956;P13010 1-609;1-732); assay: EMSA; primarily 1:1 Ku:DNA; ELISA: 20 mM HEPES pH 7.5, 75 mM KCl, 10% glycerol, 0.005% Triton X-100, 2 mM DTT, room temperature, 1 h, 2 pmol DNA, 424 ng DNA-PKcs; EMSA: 20 ul, 500 fmol DNA, buffer as in earlier papers; conditions: protein: recombinant; tags: His (Ku70); copies: 1;1; blunt
Ku70/Ku80 wild type [3] = target: T2, Ku70/Ku80 wild type; assay: EMSA; 1 and 2 Ku per DNA, preference for 2; ELISA: 20 mM HEPES pH 7.5, 75 mM KCl, 10% glycerol, 0.005% Triton X-100, 2 mM DTT, room temperature, 1 h, 2 pmol DNA, 424 ng DNA-PKcs; EMSA: 20 ul, 500 fmol DNA, buffer as in earlier papers; conditions: protein: recombinant; tags: His (Ku70); copies: 1;1; blunt
[4] = target: T1, Ku70/Ku80 wild type;DNA-PKcs; assay: ELISA; more than double the 30bp and 400bp recruitment (Fig 4C); ELISA: 20 mM HEPES pH 7.5, 75 mM KCl, 10% glycerol, 0.005% Triton X-100, 2 mM DTT, room temperature, 1 h, 2 pmol DNA, 424 ng DNA-PKcs; EMSA: 20 ul, 500 fmol DNA, buffer as in earlier papers; conditions: protein: recombinant;native; tags: His (Ku70);; copies: 1;1;1; label: 5' biotin on one end; blunt

T2 sequence (P12956 whole entry, chain 1 of 2): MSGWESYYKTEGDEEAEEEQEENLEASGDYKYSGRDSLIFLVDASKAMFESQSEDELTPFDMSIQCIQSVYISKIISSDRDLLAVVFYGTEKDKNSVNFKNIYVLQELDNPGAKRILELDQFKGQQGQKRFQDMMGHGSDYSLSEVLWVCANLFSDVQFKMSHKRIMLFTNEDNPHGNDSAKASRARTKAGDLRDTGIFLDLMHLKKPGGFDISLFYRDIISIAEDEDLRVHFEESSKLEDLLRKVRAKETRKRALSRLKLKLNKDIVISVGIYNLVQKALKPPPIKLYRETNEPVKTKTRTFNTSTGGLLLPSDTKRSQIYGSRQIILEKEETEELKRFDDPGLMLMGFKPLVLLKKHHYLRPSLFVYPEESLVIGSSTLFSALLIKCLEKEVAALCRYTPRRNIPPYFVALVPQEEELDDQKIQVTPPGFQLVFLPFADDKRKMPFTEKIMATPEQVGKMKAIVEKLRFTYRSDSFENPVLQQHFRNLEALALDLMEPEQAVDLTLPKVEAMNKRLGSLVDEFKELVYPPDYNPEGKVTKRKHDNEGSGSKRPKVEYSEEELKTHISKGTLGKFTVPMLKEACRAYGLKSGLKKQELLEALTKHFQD
T2 sequence (P13010 whole entry, chain 2 of 2): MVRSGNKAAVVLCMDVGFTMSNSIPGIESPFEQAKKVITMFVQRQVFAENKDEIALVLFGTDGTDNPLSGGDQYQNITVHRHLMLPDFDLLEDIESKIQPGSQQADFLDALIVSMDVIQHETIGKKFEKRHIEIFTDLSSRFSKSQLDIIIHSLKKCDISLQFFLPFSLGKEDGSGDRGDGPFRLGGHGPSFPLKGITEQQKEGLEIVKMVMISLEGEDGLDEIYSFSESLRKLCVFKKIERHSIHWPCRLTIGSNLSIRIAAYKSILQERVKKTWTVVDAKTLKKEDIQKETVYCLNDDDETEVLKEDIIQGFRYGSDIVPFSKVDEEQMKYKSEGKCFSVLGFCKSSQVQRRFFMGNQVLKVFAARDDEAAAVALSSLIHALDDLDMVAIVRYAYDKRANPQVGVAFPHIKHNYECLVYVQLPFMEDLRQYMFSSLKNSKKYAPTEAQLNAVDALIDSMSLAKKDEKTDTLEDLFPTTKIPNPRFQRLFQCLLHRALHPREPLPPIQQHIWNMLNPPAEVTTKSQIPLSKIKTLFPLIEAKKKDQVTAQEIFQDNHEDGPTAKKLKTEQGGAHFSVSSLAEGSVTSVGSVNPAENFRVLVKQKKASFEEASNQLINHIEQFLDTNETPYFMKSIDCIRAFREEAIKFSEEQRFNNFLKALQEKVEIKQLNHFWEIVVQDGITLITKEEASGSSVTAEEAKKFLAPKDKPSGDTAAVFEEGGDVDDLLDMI

B1: 30bp blunt, biotinylated (dsDNA)
DNA 1: CACTTCCAACAGAGGTGACACTGCCTTCAG
DNA 2: CTGAAGGCAGTGTCACCTCTGTTGGAAGTG
For B1, the binding signal [1] was > 4 fold vs DNA-PKcs without Ku.

B2: 30bp blunt (EMSA) (dsDNA)
DNA 1: B1 DNA 1
DNA 2: B1 DNA 2
B2: binds (Ku70/Ku80 wild type [2]).

B3: 60bp blunt (EMSA) (dsDNA)
DNA 1: CTTGACCAGTAGTCTAGCACGTGACGATTGCATGCGTCAAGTAAGATGCAGATACTTAAC
DNA 2: GTTAAGTATCTGCATCTTACTTGACGCATGCAATCGTCACGTGCTAGACTACTGGTCAAG
B3: binds (Ku70/Ku80 wild type [3]).

B4: 60bp blunt, biotinylated (dsDNA)
DNA 1: B3 DNA 1
DNA 2: B3 DNA 2
In the case of B4, the binding signal [4] is reported as > 4 fold vs DNA-PKcs without Ku.
